Reference: paper PMC10376177

Legend:
Experiment in all cases: native gel or EMSA
[1] = molecular target: CthedisKatG W90F (Chaetomium thermophilum var. dissitum)
[2] = molecular target: CthedisKatG W90V (Chaetomium thermophilum var. dissitum)
[3] = molecular target: CthedisKatG, thermophilic catalase–peroxidase from Chaetomium thermophilum var. dissitum (wild type) (Chaetomium thermophilum var. dissitum)

Question: How did the stoichiometry N [1] turn out when CthedisKatG W90F (enzyme) was run?
Answer: 2

Question: How did the stoichiometry N [2] turn out when CthedisKatG W90V (enzyme) was run?
Answer: 2

Question: How did the stoichiometry N [3] turn out when “CthedisKatG, thermophilic catalase–peroxidase from Chaetomium thermophilum var. dissitum (wild type) (enzyme)” was run?
Answer: 2
